# Measurements reported in a protein production outcome set (Wang et al. 2014).
# Assay: label from the status in PepcDB records
row,Sequence,protein production
1,MKLPKALNEATAGAALKYHIKRALERSHSISDFSKNLELSTQKSHFSNNTLKIIEELNNGVKQASEEIKEKARDFSNQKLTNEQIKDLLNNAEIPTSGRDAITFGVNNLNPEIVEFLHKNNKKMIIEKASNKELELLKDANFKHPENIRASLDHDAIAHILKRHGVNSVNVRNGEIPITNEDIANYRYIVNNADAILRTLDNENKELISAFKQINGYAVVVEQAINKKNELVLKTMYKSKGDYKDNNAYKKFSSTHTLNADAKVNHRLSSYSGATENTTQKDLIDQENLLKTSENLNESTPKPTNLSPLEQANAEKLAKLESEKLESEKEFLKAKEQEATRKAALKKKLEHERGNAGNIESQTKIEVGEDIPTQTQAQLPKSRVRLNEREIYDLDYAIVKAKDLKPSFTTGGTQKRTDMNEEQIKSIAENFDPKKIFGSGGFEDLPIILHDGQVIAGNHRIQGMLNFTPKSRFSYERAIKEYYHIDLKPDELLVRVPHKRLNNTEINNLAASSNQGRFNSESDHAIAVLSHYEAKLKELDQKLDADSIYSLKNIVAKNLNFDKATHPNVTDSNLALLMFNMPRTKTQGIELLNRWKKEFSNDIKSYEKVKKMFVDNAGSFHNLIHDLNFPKVSLNAYLSDIMDRSFANLKNYQSTSESLKDLSEKFYKTSSLEMFEKSDQSTSDISEILGGAIARFARFDDPSKALFEALRSDNIKKGLKDYKIADVTKDMFNADSKEFKDIDIYDFTHYLLMVNREPNENNPILKRLIEAVKDMQKESEKGIKQKLETPSEWGHNYSEFKGDGLGAINKLLETKKGFVAGAFHKEGLGDIDLVYGNSKYGLEHIFNRRESDAIDKGMSKEEAKKYALKIINNIPNIISNGKLSKDNLGRLSIEFENQRVGLNDSWKGETLNNRWVITSYEIDKSRNGLIESPLAPNYKGKDTNPLNLDSPNPTTKN,failed
2,MPKAINYKANSVVYFSGDFDERVFLLNTGSIALTSIDIETGEQVTDYIKTGEFFGVKSALGNYPREESAMVLTDSIVYSFTSKEFEAFAQTNTRIILQMIKVFSRQLRTIHKQLASLLDSEEEKNPEEGLFNVMNAFYSSQHYKAAGQVGTRYKAIYPNGKYISQVDQIVRSTAEVAGRSFGNAEGHNNDAVLAHHEKPAAVTDGTVHLAYNKAEDLFEKGEFEAAYDQYHAVIEAGAGDEITDNAYIGAGKSLHSQKEYVRCLQLLTGFISQHPKSSKIGDALMYLGMCYMDMERPDKAIAFFDKAAILSGADIIGKIRELQKECSSRLQGA,failed
3,MINMCYNFENVKKAYEDQLKNYIKNSLIPNLSSHANNEVVKISMKKLANLGFGYLVDSTLSSITGYYKVRDWIEELLKEELQKSGENKCCNIVLCDYPEEFEISMREIPYYVNKVVKFNGVIISASYPCVLSKKHLYICPKCGRIKEVYFSELFWDDKVFCEFCGGKMEFANVMDYENFQELVVQDLSDESEYYGIEKNPIVWYCGAKPYYFGHVKITGIVREVPRSSKSRIYELIVQAINVEKLGVEKSLINLTEEDVKNIKKVAKRGDIIDILADILIPPLLCDDAIVRKAILIQQIAPYLEDIGKINILLVTEVGIDKTAILKRIGNIPGNNFINIAALKEEELATPYDKRSNILGKFYTVCGGVIPRTLGVLCIDDFNENNKLSTKLSEAFERNVLTTNKGSFYCVPAECSFLCACYPKTKFRKFDQKKSIIKQIGISSILLKNFDLIFPIRDIPDKDRDEEVAKYIFLKYINSDNEEIEGYDYVFVDVGGEKIKIDFEFLKKYVVYSRQITPKITDEVIEKISNWYDEMRKNHYITAKQLNTVIKLSIAVARAKLKECVDEDDVKEAIDIIMHYLKQVVYNPKKGIIDVILLYKNKT,failed
4,MAKNDKINFSTPSGFPEFLPSEKRLELYLLDTIRRVYESYGFTPIETPAVERLEVLQAKGNQGDNIIYGLEPILPPNRQAEKDKSGDTGSEARALKFDQTVPLAAYIARHLNDLTFPFARYQMDVVFRGERAKDGRFRQFRQCDIDVVGREKLSLLYDAQMPAIITEIFEAVNIGDFVIRINNRKVLTGFFQSLNISETQIKSCISIIDNLEKIGEAKVKLELEKEGINPEQTQKIIDFVKIDGSVDDVLDKLKHLSQTLPESEQFNLGVSELETVITGVRNLGVPDKRFCIDLAIARGLNYYTGTVYETTLIGHEALGSICSGGRYEELVGTFIGEKMPGVGISIGLTRLISRLLKAGILNTLPPTPAQVVVVNMQDELMPTYLKVSQQLRQAGLNVITNFEKRQLGKQFQAADKQGIRFCVIIGADEAAAQKSSLKDLQSGEQVEVALADLAEEIKRRLT,not failed
5,MTPMKTYDLIVIGTGPGGYHAAIRAAQLGLKVLAVEAGEVGGVCLNVGCIPTKALLHAAETLHHLKVAEGFGLKAKPELDLKKLGGWRDQVVKKLTGGVGTLLKGNGVELLRGFARLVGPKEVEVGGERYGAKSLILATGSEPLELKGFPFGEDVWDSTRALKVEEGLPKRLLVIGGGAVGLELGQVYRRLGAEVTLIEYMPEILPQGDPETAALLRRALEKEGIRVRTKTKAVGYEKKKDGLHVRLEPAEGGEGEEVVVDKVLVAVGRKPRTEGLGLEKAGVKVDERGFIRVNARMETSVPGVYAIGDAARPPLLAHKAMREGLIAAENAAGKDSAFDYQVPSVVYTSPEWAGVGLTEEEAKRAGYKVKVGKFPLAASGRALTLGGAEGMVKVVGDEETDLLLGVFIVGPQAGELIAEAALALEMGATLTDLALTVHPHPTLSESLMEAAEAFHKQAIHILNR,not failed
6,MKLIAAGLTLIFLGFILLFLGVVLQVQTPQTTTSSSPQFAGLVLLGPIPIAFGNVPPSVLSNLIIVGVVFTIIMLIIYLIMFIIGRKTTRAPF,failed
7,MYSSGNPTNIANPIKDASVQIDLKTVGGKLTLYQTTLCERISGDNIDLGLDLGSQSFLPTYNKNDIQLICCQADASVLWLVPDTVVTRFIQSLDWDTDMDITFTWVLNRDRPKGKETVKYERSVDPLDLPKRSDIQMVLNGSMDGFRVHNLYPKFFRVTGSGDVRSFEDQTDEVSADILINHANFKWWWSFHNLKASENISACEGMDGPVAIIMSEETPPPVGRFIRLQCSDLRMRIPYENLPSCDRLIAICEDLYAARAEGELGVEEVLYWTLVKIYRSPHMLLEYTKLDYDA,failed
8,MKNRIWSAAMAAGLLVAAATSAQAEPVMQGRDAYGDWQSDRPGTVRLIRPQDLVKPGATRSVASFARVVPRPSDASPQVPPGFKIELFAEGLRAPRIVRVAPNGDVFVAETRAGTIRVLRAGEGGKVAANEVFASGLRQPFGVAFFPNGDNPQWVYVANTDSVVRFPYQAGDLKARSKAEKIVASLPHDGGHSTRDIVFTPDNKRMLVSVGSLSNVAEGMGTPPGGMDAWSKTQPLGAAWASETERATVLAFTPDGKERKIYATGIRNCVGLAIQSQTGLPWCSTNERDGLGDDLVPDYVTSVKEGAFYGWPWFYIGGNEDPRHAGARPDLKDRVTIPDVLIQPHSASLGMTFYEGTQFPSDYQGDAFAAEHGSWNRSKRTGYKVIRIRMKDGKPTGEYEDFVTGFVLSDTEVWGRPVGVAVAKDGALLISEDGNGTIWRVSHP,failed
9,MGICVVIPAFNAALTIEAVVRETLEQGLPLVVVDDGSEDGTADCVRGLPVNLVSHGRNRGKGAALKTGFAWALEYGFSGVITLDSDGQHDPTAITLLAETAKNDGWDILVASRFAQFNQMAGLRRHWNRFGAWCMKKRTGFQIDDSQSGFRYYSARLLRMVSLGKDGYDLEMEILMKAWQAGCTIGSVPVPARVADGRATSHFRPVRDTWNICMTFLRYMLEHHHHHH,failed
10,MKRIKTRAITLLALCIALNIVGSNIALMLKLPIYLDSIGTVLAAAVFGPLGGMLAGGATGVIVGATTDLYSLFFMPVQLLTGLVAGLLYRRIKPGTWRSNWWLAGVISLPGTLLSTAITVILFHGITSSGSSMLVQLLLGTGMGKTMAVFLIQVGTDYLDRFITVYVVALVYRALRYKLPQAN,failed
11,MLNFTVGPVMSSEEVRAIGAEQVPYFRTTEFSSTMLENEKFMLEYAKAPEGSKAVFMTCSSTGSMEAVVMNCFTKKDKVLVIDGGSFGHRFVQLCEIHEIPYVALKLEHGKKLTKEKLYEYDNQNFTGLLVNVDETSTAVLYDTMMIGEFCKKNNMFFVCDCVSAFLADPFNMNECGADVMITGSQKVLACPPGISVIVLAPRGVERVEKSKVRTMYFDLKDALKNQERGQTPFTPAVGILLQINERLKEIKKHGGADAEVARIASQAADFRAKIKDLPFELVSESPANGVTSVHPTTANAYDIFLKLKDEYGIWICPNGGEMKDTIFRVGHIGALTHEDNTTLVNAFKDLQKRNLL,not failed
12,VQLVRLLEEKIKSLQIEIENLRKELNYYKAEMEKMLSPPLIEAVVLDVLPDGRVLVRSSSGPNLVVNIASHIDQKLIKPGISVALNQRGSTILEVLPQKEDPIVKTMEIIERPN,not failed
13,MKSILDGLADTTFRTITTDLLYVGSNDIQYEDIKGDMASKLGYFPQKFPLTSFRGSPFQEKMTAGDNPQLVPADQVNITEFYNKSLSSFKENEENIQCGENFMDIECFMVLNPSQQLAIAVLSLTLGTFTVLENLLVLCVILHSRSLRCRPSYHFIGSLAVADLLGSVIFVYSFIDFHVFHRKDSRNVFLFKLGGVTASFTASVGSLFLTAIDRYISIHRPLAYKRIVTRPKAVVAFCLMWTIAIVIAVLPLLGWNCEKLQSVCSDIFPHIDETYLMFWIGVTSVLLLFIVYAYMYILWKAHSHAVRMIQRGTQKSIIIHTSEDGKVQVTRPDQARMDIRLAKTLVLILVVLIICWGPLLAIMVYDVFGKMNKLIKTVFAFCSMLCLLNSTVNPIIYALRSKDLRHAFRSMFPSCEGTAQPLDNSMGDSDCLHKHANNAASVHRAAESCIKSTVKIAKVTMSVSTDTSAEAL,not failed
14,MSNHQKRLSVPNSWPVERKTATFTVKAGAGPHGESGVPLLIVLRDVLGYADNRKEARYALNEDNVLINGKAISDEERPVGMFDILAFTEREEYYRVFPGEGGRLALTAIDPDAAQSKLGKIVTKTHVSGGDVQLGLHDGETLIVEDDQTYDAGDSIVVGNEDGEVVAHFEYEEGALVTAVDGAHAGEVGEVEEIQVTPGSAQNNVIVSQDEGEGFETVEEYVVVIDENFTGDDELEHHHHHH,not failed
15,MNNLIITTRQSPVRLLVDYVATTILWTLFALFIFLFAMDLLTGYYWQSEARSRLQFYFLLAVANAVVLIVWALYNKLRFQKQQHHAAYQYTPQEYAESLAIPDELYQQLQKSHRMSVHFTSQGQIKMVVSEKALVRA,failed
16,MFFKEIHHVAINASNYQATKNFYVEKLGFEVLRENHRPEKNDIKLDLKLGSQELEIFISDQFPARPSYPEALGLRHLAFKVEHIEEVIAFLNEQGIETEPLRVDDFTGKKMTFFFDPDGLPLELHE,not failed
17,MRLIVVGIAEDITEKKQLETELQRLATTDVLTQSSNRRHFFECANREFEQARLQGSSLAFLLLDIDDFKVINDTYGHPEGDIVLQRIAESGRAALRRGDLFGRIGGEEFAAVFPGCTADMARQVAERLQREIQRQNFSHQGQTFTITVSQGLTGLLAEDESLDNLFARADSAMYEAKRQGKNRIITGLEHHHHHH,failed
18,MAQINFEGLRELHDCVNYLLHHCPKTRESLSQQGQEKWTEQVSEASLRMLDICNVSKDVMTLVKHSLQDLQLTLRGNESSDVNEKIAAYNRYKNKLKKETLKCLNCLKNMKGNEGRVAMPIEQNLLFVTEVLKEVRRVVVTMVESLFSLGCIPWLEKRSSKGSLSSIFSIRSSYLLDDEWDETAVQSATTRLEAAEITVVELEIELESIFRRLIQTRVSLLNILTN,failed
19,MDKLRVPFHRPYVNLRRCSERLVMHIHILGICGTFMGSLAVLAKESGHRVTGSDANVYPPMSTQLQAQGIELTQGYDPAQLDPAPDLVVVGNALSRGNPAVEYVLNKGLPYVSGPQWLADHVLQDRWVLAVAGTHGKTTTSSMLAWVLEHAGMSPGFLIGGIPQNFAVSARLGDTPFFVVEADEYDSAFFDKRSKFVHYRPRTAILNNLEFDHADIFPDLPAIERQFHHLVRTIPSEGLVIHPTTEPALSRVIEMGCWTPVQTTGDGGQWQARLLSEDGSRFEVLFEGELQGAVEWDMTGQHNVANALATLAAARHVGVVPSLGVQALSAFKSVKRRMEKVAEVRGITIYDDFAHHPTAIATTLDGLRKKIGDAPIIAVIEPRSNSMKLGAHRDGLPESVSQADQVVWYAPPNLGWDLAATVAGGSVPSTVCDSLEAIIARVHSQVQPGTHIVIMSNGGFGGLHGKLAEALK,failed
